Assay results: article PMC3143260 (2012)
Read-outs that look alike come from different tables or passages of the source.

T1: RPP21 (Pyrococcus furiosus, UniProt Q8U0H6)
T1 chain: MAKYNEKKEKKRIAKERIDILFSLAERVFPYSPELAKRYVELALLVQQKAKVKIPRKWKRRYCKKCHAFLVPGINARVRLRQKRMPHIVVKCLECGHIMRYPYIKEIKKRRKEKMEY

B1: RPP29 1-127 (protein)
chain: MWRNSEERENRTSGRSQGSYQEIIGRTWIFRGAHRGRVNKKNIVWHELIGLKVRVVNSTHPGYVGIEGYVIDETRNMLVIAGENKVWKVPKDVCIFEFETWDGTKIKISGEKLVGRPEMRLKKRWRK
B2: RPP29 18-127 (protein)
chain: GSYQEIIGRTWIFRGAHRGRVNKKNIVWHELIGLKVRVVNSTHPGYVGIEGYVIDETRNMLVIAGENKVWKVPKDVCIFEFETWDGTKIKISGEKLVGRPEMRLKKRWRK

Legend:
[1] = molecular target: T1, RPP21; assay: ITC
[2] = molecular target: T1, RPP21; assay: ITC

Binder	Kd [1] [nM]	Kd [2] [nM]
B1	250	250
B2	230	–
